In US20230272055A1 (Incyte, published 2023):

B1: anti-mutCALR antibody clone 62 (antibody, human IgG1, lambda, N297A, V domains shown)
VH: EVQLVQSGAEVKKPGASVKVSCKVSGYTLTELSMQWVRQAPGKGLEWMGGFDPDSGETMYAEKFQGRLTVTEDTSTDTVYMELSSLRSEDTAVYFCATSPGYDFFDYWGQGTLVTVSS
VL: QSALTQPASVSGSPGQSITISCTGTSSDVGGYNYVSWYQQHPGKAPKLMIYEVSNRPSGVSNRFSGSNSGNTATLTINRVEAGDEADYYCQVWDSSNDLLIFGGGTKLTVLG
notes: human IgG1 N297A variant of clone 6
B2: anti-mutCALR antibody clone 70 (antibody, human IgG1, lambda, N297A, V domains shown)
VH: EVQLVQSGAEVKKPGASVKVSCKVSGYTLTELSMQWVRQAPGKGLEWMGGFDPDDGETMYAEKFQGRLTVTEDTSTDTVYMELSSLRSEDTAVYFCATSPGYDFFDYWGQGTLVTVSS
VL: SYVLTQPPSVSVAPGKTARITCTGTSSDVGGYNYVSWYQQKPGQAPVLVVYEVSNRPSGIPERFSGSNSGNTATLTISRVEAGDEADYYCQVWDSSNDLLIFGGGTKLTVLG
notes: as for B1
B3: anti-mutCALR antibody clone 179 (antibody, human IgG1, lambda, N297A, V domains shown)
VH: EVQLVQSGAEVKKPGASVKVSCKVSGYTLTELSMQWVRQAPGKGLEWMGGFDPDDAETMYAEKFQGRLTVTEDTSTDTVYMELSSLRSEDTAVYFCATSPGYDFFDYWGQGTLVTVSS
VL: SYVLTQPPSVSVAPGQTARITCGGSDIGDEIVHWYQQKPGQAPVLVVYDDSDRPSGIPERFSGSNSGNTATLTISRAQAGDEADYYCQVWDSSSDHLIFGGGTKLTVLG
notes: human IgG1 N297A variant of clone 17
B4: anti-mutCALR antibody clone 177 (antibody, human IgG1, lambda, N297A, V domains shown)
VH: EVQLVQSGAEVKKPGASVKVSCKVSGYTLTELSMQWVRQAPGKGLEWMGGFDPDSGETMYAEKFQGRLTVTEDTSTDTVYMELSSLRSEDTAVYFCATSPGYDFFDYWGQGTLVTVSS
VL: SYVLTQPPSVSVAPGQTARITCGGSDIGDEIVHWYQQKPGQAPVLVVYDDSDRPSGIPERFSGSNSGNTATLTISRAQAGDEADYYCQVWDSSSDHLIFGGGTKLTVLG
notes: as for B3
B5: anti-mutCALR antibody clone 178 (antibody, human IgG1, lambda, N297A, V domains shown)
VH: EVQLVQSGAEVKKPGASVKVSCKVSGYTLTELSMQWVRQAPGKGLEWMGGFDPDEGETMYAEKFQGRLTVTEDTSTDTVYMELSSLRSEDTAVYFCATSPGYDFFDYWGQGTLVTVSS
VL: SYVLTQPPSVSVAPGQTARITCGGSDIGDEIVHWYQQKPGQAPVLVVYDDSDRPSGIPERFSGSNSGNTATLTISRAQAGDEADYYCQVWDSSSDHLIFGGGTKLTVLG
notes: as for B3
B6: anti-mutCALR antibody clone 68 (antibody, human IgG1, lambda, N297A, V domains shown)
VH: EVQLVQSGAEVKKPGASVKVSCKVSGYTLTELSMQWVRQAPGKGLEWMGGFDPDEGETMYAEKFQGRLTVTEDTSTDTVYMELRSLTSEDTALYFCATSPGYDFFDYWGQGTLVTVSS
VL: SYVLTQPPSVSVAPGKTARITCTGTSSDVGGYNYVSWYQQKPGQAPVLVVYEVSNRPSGIPERFSGSNSGNTATLTISRVEAGDEADYYCQVWDSSNDLLIFGGGTKLTVLG
notes: as for B1
B7: anti-mutCALR antibody clone 63 (antibody, human IgG1, lambda, N297A, V domains shown)
VH: EVQLVQSGAEVKKPGASVKVSCKVSGYTLTELSMQWVRQAPGKGLEWMGGFDPDEGETMYAEKFQGRLTVTEDTSTDTVYMELSSLRSEDTAVYFCATSPGYDFFDYWGQGTLVTVSS
VL: QSALTQPASVSGSPGQSITISCTGTSSDVGGYNYVSWYQQHPGKAPKLMIYEVSNRPSGVSNRFSGSNSGNTATLTINRVEAGDEADYYCQVWDSSNDLLIFGGGTKLTVLG
notes: as for B1
B8: anti-mutCALR antibody clone 66 (antibody, human IgG1, lambda, N297A, V domains shown)
VH: EVQLVQSGAEVKKPGASVKVSCKVSGYTLTELSMQWVRQAPGKGLEWMGGFDPDAGETMYAEKFQGRLTVTEDTSTDTVYMELRSLTSEDTALYFCATSPGYDFFDYWGQGTLVTVSS
VL: SYVLTQPPSVSVAPGKTARITCTGTSSDVGGYNYVSWYQQKPGQAPVLVVYEVSNRPSGIPERFSGSNSGNTATLTISRVEAGDEADYYCQVWDSSNDLLIFGGGTKLTVLG
notes: as for B1
B9: anti-mutCALR antibody clone 73 (antibody, human IgG1, lambda, N297A, V domains shown)
VH: EVQLVQSGAEVKKPGASVKVSCKVSGYTLTELSMQWVRQAPGKGLEWMGGFDPDEGETMYAEKFQGRLTVTEDTSTDTVYMELSSLRSEDTAVYFCATSPGYDFFDYWGQGTLVTVSS
VL: SYVLTQPPSVSVAPGKTARITCTGTSSDVGGYNYVSWYQQKPGQAPVLVVYEVSNRPSGIPERFSGSNSGNTATLTISRVEAGDEADYYCQVWDSSNDLLIFGGGTKLTVLG
notes: as for B1
B10: anti-mutCALR antibody clone 64 (antibody, human IgG1, lambda, N297A, V domains shown)
VH: EVQLVQSGAEVKKPGASVKVSCKVSGYTLTELSMQWVRQAPGKGLEWMGGFDPDDAETMYAEKFQGRLTVTEDTSTDTVYMELSSLRSEDTAVYFCATSPGYDFFDYWGQGTLVTVSS
VL: QSALTQPASVSGSPGQSITISCTGTSSDVGGYNYVSWYQQHPGKAPKLMIYEVSNRPSGVSNRFSGSNSGNTATLTINRVEAGDEADYYCQVWDSSNDLLIFGGGTKLTVLG
notes: as for B1
B11: anti-mutCALR antibody clone 71 (antibody, human IgG1, lambda, N297A, V domains shown)
VH: EVQLVQSGAEVKKPGASVKVSCKVSGYTLTELSMQWVRQAPGKGLEWMGGFDPDAGETMYAEKFQGRLTVTEDTSTDTVYMELSSLRSEDTAVYFCATSPGYDFFDYWGQGTLVTVSS
VL: SYVLTQPPSVSVAPGKTARITCTGTSSDVGGYNYVSWYQQKPGQAPVLVVYEVSNRPSGIPERFSGSNSGNTATLTISRVEAGDEADYYCQVWDSSNDLLIFGGGTKLTVLG
notes: as for B1
B12: anti-mutCALR antibody clone 72 (antibody, human IgG1, lambda, N297A, V domains shown)
VH: EVQLVQSGAEVKKPGASVKVSCKVSGYTLTELSMQWVRQAPGKGLEWMGGFDPDSGETMYAEKFQGRLTVTEDTSTDTVYMELSSLRSEDTAVYFCATSPGYDFFDYWGQGTLVTVSS
VL: SYVLTQPPSVSVAPGKTARITCTGTSSDVGGYNYVSWYQQKPGQAPVLVVYEVSNRPSGIPERFSGSNSGNTATLTISRVEAGDEADYYCQVWDSSNDLLIFGGGTKLTVLG
notes: as for B1
B13: anti-mutCALR antibody clone 69 (antibody, human IgG1, lambda, N297A, V domains shown)
VH: EVQLVQSGAEVKKPGASVKVSCKVSGYTLTELSMQWVRQAPGKGLEWMGGFDPDDAETMYAEKFQGRLTVTEDTSTDTVYMELRSLTSEDTALYFCATSPGYDFFDYWGQGTLVTVSS
VL: SYVLTQPPSVSVAPGKTARITCTGTSSDVGGYNYVSWYQQKPGQAPVLVVYEVSNRPSGIPERFSGSNSGNTATLTISRVEAGDEADYYCQVWDSSNDLLIFGGGTKLTVLG
notes: as for B1
B14: anti-mutCALR antibody clone 67 (antibody, human IgG1, lambda, N297A, V domains shown)
VH: EVQLVQSGAEVKKPGASVKVSCKVSGYTLTELSMQWVRQAPGKGLEWMGGFDPDSGETMYAEKFQGRLTVTEDTSTDTVYMELRSLTSEDTALYFCATSPGYDFFDYWGQGTLVTVSS
VL: SYVLTQPPSVSVAPGKTARITCTGTSSDVGGYNYVSWYQQKPGQAPVLVVYEVSNRPSGIPERFSGSNSGNTATLTISRVEAGDEADYYCQVWDSSNDLLIFGGGTKLTVLG
notes: as for B1

Target: T1, Recombinant MBP-mutCALR Type 1 fusion protein (human)
T1 construct: custom made at Cepter; also called recombinant mutCALR protein
Assay: SPR, IgG captured, 1:1 fit, Exp. 2
Experimental: Experiment 2: Recombinant MBP-mutCALR Type 1 fusion protein was custom made at Cepter (cepterbiopartners.com). Data for the interaction of antibodies with recombinant mutCALR protein were collected at 25° C. on a Biacore 8K instrument (Cytiva, Marlborough, Mass.), and all reagents were obtained from Cytiva unless otherwise specified. The experiments were conducted using Tris-buffered saline (pH 7.2), 0.005% Surfactant P20, 1 mM CaCl₂) as running buffer. To prepare the capture surfaces, anti-human IgG (Fc) antibodies (Product #29234600) was amine-coupled onto a CM4 chip (Product #BR100534) under standard conditions using an Amine Coupling Kit (Product #BR100050). […] The kinetics parameters were obtained by applying 1:1 binding model to fit the data from multiple-cycle injection experiments using Biacore Insight Evaluation software.

Binder	Kd	koff	kon
B1	1.76 nM	0.00621 s⁻¹	3.52e+06 M⁻¹ s⁻¹
B2	0.966 nM	0.000953 s⁻¹	987000 M⁻¹ s⁻¹
B3	0.455 nM	0.00681 s⁻¹	1e+07 M⁻¹ s⁻¹
B4	1.49 nM	0.00549 s⁻¹	3.7e+06 M⁻¹ s⁻¹
B5	1.21 nM	0.00123 s⁻¹	1.02e+06 M⁻¹ s⁻¹
B6	1.15 nM	0.00166 s⁻¹	1.44e+06 M⁻¹ s⁻¹
B7	0.244 nM	0.000691 s⁻¹	2.83e+06 M⁻¹ s⁻¹
B8	2.36 nM	0.00836 s⁻¹	3.54e+06 M⁻¹ s⁻¹
B9	0.76 nM	0.00546 s⁻¹	7.18e+06 M⁻¹ s⁻¹
B10	0.638 nM	0.00248 s⁻¹	3.89e+06 M⁻¹ s⁻¹
B11	2.31 nM	0.0107 s⁻¹	4.63e+06 M⁻¹ s⁻¹
B12	3.74 nM	0.00382 s⁻¹	1.02e+06 M⁻¹ s⁻¹
B13	0.53 nM	0.00527 s⁻¹	9.94e+06 M⁻¹ s⁻¹
B14	3.34 nM	0.0102 s⁻¹	3.05e+06 M⁻¹ s⁻¹
